Tests used:
[1] = molecular target: the molecule itself; test: SEC; HPLC gel filtration (BIOSEP-SEC S-3000) at 2°C after cooling (20 h; P. vulgaris 24 h); apo enzymes, same Tricine-KCl buffer without PLP; tetramer to dimers (P. vulgaris: also to monomers)
[2] = molecular target: the molecule itself; test: SEC; HPLC gel filtration (BIOSEP-SEC S-3000) at 25°C; apo enzymes, same Tricine-KCl buffer without PLP; tetramer to dimers (P. vulgaris: also to monomers)
[3] = molecular target: the molecule itself; test: SEC; HPLC gel filtration (BIOSEP-SEC S-3000) at 2°C after 20 h at 2°C; holo enzymes, 1 mg/ml, Tricine-KCl buffer pH 7.5 with PLP (0.1 mM by the table's footnote), 2 mM EDTA, 5 mM 2-mercaptoethanol; tetramer to dimers
[4] = molecular target: the molecule itself; test: SEC; time profile of cold dissociation at 2°C followed by HPLC gel filtration; Tricine-KCl buffer pH 7.5, protein 1.0 mg/ml; tetramer to dimers
[5] = molecular target: the molecule itself; test: SEC; HPLC gel filtration (BIOSEP-SEC S-3000) at 25°C; holo enzymes, 1 mg/ml, Tricine-KCl buffer pH 7.5 with PLP (0.1 mM by the table's footnote), 2 mM EDTA, 5 mM 2-mercaptoethanol; tetramer to dimers
[6] = molecular target: the molecule itself; test: as above; remark: listed apart in the source

Protein	degree of dissociation to dimers (%) [1] [%]	degree of dissociation to dimers (%) [2] [%]	degree of dissociation to dimers (%) [3] [%]	initial rate constant of cold dissociation (tetramer to dimers) [4] [min⁻¹]	degree of dissociation to dimers (%) [5] [%]	stoichiometry N [6]
wild-type E. coli tryptophanase, apo form (enzyme, tryptophanase (Trpase, EC 4.1.99.1), E. coli, wild type, without PLP; also called wt apo; apo wt Trpase; source: E. coli SVS 370 cells containing the tnaA gene on plasmids, purified; apo enzyme by overnight dialysis of the holo enzyme against 0.1 M sodium phosphate-ethylenediamine buffer, pH 8.0, 4°C) not shown	87	70	–	–	–	–
E. coli tryptophanase W330F mutant, apo form (enzyme, tryptophanase (Trpase), E. coli, W330F mutant, without PLP; also called W330F apo; source: E. coli SVS 370 cells containing the tnaA gene with the site-directed mutation, purified; apo enzyme by overnight dialysis of the holo enzyme) not shown	90	69	–	–	–	–
E. coli tryptophanase W330F mutant, holo form (enzyme, pyridoxal 5'-phosphate (PLP) covalently bound to Lys270, tryptophanase (Trpase), E. coli, W330F mutant; also called W330F holo; source: E. coli SVS 370 cells containing the tnaA gene with the site-directed mutation, purified as the wild type) not shown	–	–	61	0.00084	< 5	4
wild-type E. coli tryptophanase, holo form (enzyme, pyridoxal 5'-phosphate (PLP) covalently bound to Lys270, tryptophanase (Trpase, EC 4.1.99.1), E. coli, wild type, ~52 kD per monomer; also called wt holo; wt Trpase; source: E. coli SVS 370 cells containing the tnaA gene on plasmids, purified (DEAE anion exchange, Sephacryl S-300-HR)) not shown	–	–	20	0.00042	< 3	4
E. coli tryptophanase Y74F mutant, holo form (enzyme, pyridoxal 5'-phosphate (PLP) covalently bound to Lys270, tryptophanase (Trpase), E. coli, Y74F mutant; the sample called 'Y74F holo' was run with 0.1 mM PLP; also called Y74F holo; source: E. coli BL21(DE3), pET17b plasmid, purified) MENFKHLPEPFRIRVIEPVKRTTRAYREEAIIKSGMNPFLLDSEDVFIDLLTDSGTGAVTQSMQAAMMRGDEAFSGSRSYYALAESVKNIFGYQYTIPTHQGRGAEQIYIPVLIKKREQEKGLDRSKMVAFSNYFFDTTQGHSQINGCTVRNVYIKEAFDTGVRYDFKGNFDLEGLERGIEEVGPNNVPYIVATITSNSAGGQPVSLANLKAMYSIAKKYDIPVVMDSARFAENAYFIKQREAEYKDWTIEQITRETYKYADMLAMSAKKDAMVPMGGLLCMKDDSFFDVYTECRTLCVVQEGFPTYGGLEGGAMERLAVGLYDGMNLDWLAYRIAQVQYLVDGLEEIGVVCQQAGGHAAFVDAGKLLPHIPADQFPAQALACELYKVAGIRAVEIGSFLLGRDPKTGKQLPCPAELLRLTIPRATYTQTHMDFIIEAFKHVKENAANIKGLTFTYEPKVLRHFTAKLKEV	–	–	66	–	17	–
E. coli tryptophanase C298S mutant, apo form (enzyme, tryptophanase (Trpase), E. coli, C298S mutant, without PLP; one monomer in the asymmetric unit of the crystal, the tetramer arises by symmetry; also called C298S apo; apo C298S; source: E. coli SVS 370 cells containing the tnaA gene with the site-directed mutation, purified; apo enzyme by overnight dialysis of the holo enzyme) MENFKHLPEPFRIRVIEPVKRTTRAYREEAIIKSGMNPFLLDSEDVFIDLLTDSGTGAVTQSMQAAMMRGDEAYSGSRSYYALAESVKNIFGYQYTIPTHQGRGAEQIYIPVLIKKREQEKGLDRSKMVAFSNYFFDTTQGHSQINGCTVRNVYIKEAFDTGVRYDFKGNFDLEGLERGIEEVGPNNVPYIVATITSNSAGGQPVSLANLKAMYSIAKKYDIPVVMDSARFAENAYFIKQREAEYKDWTIEQITRETYKYADMLAMSAKKDAMVPMGGLLCMKDDSFFDVYTECRTLSVVQEGFPTYGGLEGGAMERLAVGLYDGMNLDWLAYRIAQVQYLVDGLEEIGVVCQQAGGHAAFVDAGKLLPHIPADQFPAQALACELYKVAGIRAVEIGSFLLGRDPKTGKQLPCPAELLRLTIPRATYTQTHMDFIIEAFKHVKENAANIKGLTFTYEPKVLRHFTAKLKEV	88	> 80	–	–	–	–
E. coli tryptophanase Y74F mutant, apo form (enzyme, tryptophanase (Trpase), E. coli, Y74F mutant, without PLP; one monomer in the asymmetric unit of the crystal, the tetramer arises by symmetry; also called Y74F apo; apo Y74F; source: E. coli BL21(DE3), pET17b plasmid, purified; apo enzyme by overnight dialysis of the holo enzyme) MENFKHLPEPFRIRVIEPVKRTTRAYREEAIIKSGMNPFLLDSEDVFIDLLTDSGTGAVTQSMQAAMMRGDEAFSGSRSYYALAESVKNIFGYQYTIPTHQGRGAEQIYIPVLIKKREQEKGLDRSKMVAFSNYFFDTTQGHSQINGCTVRNVYIKEAFDTGVRYDFKGNFDLEGLERGIEEVGPNNVPYIVATITSNSAGGQPVSLANLKAMYSIAKKYDIPVVMDSARFAENAYFIKQREAEYKDWTIEQITRETYKYADMLAMSAKKDAMVPMGGLLCMKDDSFFDVYTECRTLCVVQEGFPTYGGLEGGAMERLAVGLYDGMNLDWLAYRIAQVQYLVDGLEEIGVVCQQAGGHAAFVDAGKLLPHIPADQFPAQALACELYKVAGIRAVEIGSFLLGRDPKTGKQLPCPAELLRLTIPRATYTQTHMDFIIEAFKHVKENAANIKGLTFTYEPKVLRHFTAKLKEV	83	80	–	–	–	–
E. coli tryptophanase C298S mutant, holo form (enzyme, pyridoxal 5'-phosphate (PLP) covalently bound to Lys270, tryptophanase (Trpase), E. coli, C298S mutant; also called C298S holo; source: E. coli SVS 370 cells containing the tnaA gene with the site-directed mutation, purified as the wild type) MENFKHLPEPFRIRVIEPVKRTTRAYREEAIIKSGMNPFLLDSEDVFIDLLTDSGTGAVTQSMQAAMMRGDEAYSGSRSYYALAESVKNIFGYQYTIPTHQGRGAEQIYIPVLIKKREQEKGLDRSKMVAFSNYFFDTTQGHSQINGCTVRNVYIKEAFDTGVRYDFKGNFDLEGLERGIEEVGPNNVPYIVATITSNSAGGQPVSLANLKAMYSIAKKYDIPVVMDSARFAENAYFIKQREAEYKDWTIEQITRETYKYADMLAMSAKKDAMVPMGGLLCMKDDSFFDVYTECRTLSVVQEGFPTYGGLEGGAMERLAVGLYDGMNLDWLAYRIAQVQYLVDGLEEIGVVCQQAGGHAAFVDAGKLLPHIPADQFPAQALACELYKVAGIRAVEIGSFLLGRDPKTGKQLPCPAELLRLTIPRATYTQTHMDFIIEAFKHVKENAANIKGLTFTYEPKVLRHFTAKLKEV	–	–	64	0.0032	< 5	4

Source: publication PMC2770544, “Conformational changes and loose packing promote E. coli Tryptophanase cold lability” (BMC Structural Biology, 2009)
